B3: Cyno IL-6R (receptor, cynomolgus monkey)
chain: EVARGVLTSLPGDSVTLTCPGGEPEDNATVHWVLRKPAEGSHLSRWAGVGRRLLLRSVQLHDSGNYSCYRAGRPAGTVHLLVDVPPEEPQLSCFRKSPLSNVVCEWGPRSTPSPTTKAVLLVRKFQNSPAEDFQEPCQYSQESQKFSCQLAVPEGDSSFYIVSMCVASSVGSKLSKTQTFQGCGILQPDPPANITVTAVARNPRWLSVTWQDPHSWNSSFYRLRFELRYRAERSKTFTTWMVKDLQHHCVIHDAWSGLRHVVQLRAQEEFGQGEWSEWSPEAMGTPWTESRSPPAENEVSTPTQAPTTNKDDDNILSGDSANATSLPVQDSSSVPLP
notes: also called cynomolgus monkey IL-6R; recombinant cyno sIL-6R

The target of test [1] is T1, Human membrane IL-6R on cells (human, UniProt P08887 20-468).
T1 sequence (looked up): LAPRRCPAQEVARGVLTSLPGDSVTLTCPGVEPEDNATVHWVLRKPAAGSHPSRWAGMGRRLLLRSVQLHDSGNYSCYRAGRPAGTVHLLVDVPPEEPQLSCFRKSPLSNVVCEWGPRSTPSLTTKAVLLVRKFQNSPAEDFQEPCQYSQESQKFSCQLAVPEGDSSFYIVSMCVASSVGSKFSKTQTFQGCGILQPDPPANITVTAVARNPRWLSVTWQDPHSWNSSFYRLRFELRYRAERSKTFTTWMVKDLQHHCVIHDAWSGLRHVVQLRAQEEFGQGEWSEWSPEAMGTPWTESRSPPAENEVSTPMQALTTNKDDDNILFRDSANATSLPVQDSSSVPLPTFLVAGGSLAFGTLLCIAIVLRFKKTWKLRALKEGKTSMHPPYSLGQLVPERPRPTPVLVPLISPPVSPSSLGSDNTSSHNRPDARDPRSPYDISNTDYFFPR
The test can be described thus: cell-based or functional assay.

Test [2] addresses T2, Human soluble IL-6R (human, UniProt P08887 20-358).
T2 construct: Soluble recombinant form; biotinylated in some assays; also called hIL-6R; human IL-6R
T2 sequence (looked up): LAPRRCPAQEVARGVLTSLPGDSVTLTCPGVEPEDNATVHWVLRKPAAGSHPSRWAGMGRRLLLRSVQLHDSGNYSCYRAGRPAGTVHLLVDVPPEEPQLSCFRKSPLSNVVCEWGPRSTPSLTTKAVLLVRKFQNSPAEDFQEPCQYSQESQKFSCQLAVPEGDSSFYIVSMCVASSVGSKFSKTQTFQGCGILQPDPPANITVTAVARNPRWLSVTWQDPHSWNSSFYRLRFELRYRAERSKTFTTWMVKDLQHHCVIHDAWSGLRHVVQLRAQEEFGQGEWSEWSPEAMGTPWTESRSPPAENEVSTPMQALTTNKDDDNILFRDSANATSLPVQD
Nature of the test: Biacore, binding to IL-6R (parent value).

The target of test [3] is T2, Human soluble IL-6R. The test can be described thus: Alphascreen, 100 nM Nanobody, 0.4 nM bio-IL-6R; competitor: reference Fab.
Test [4] deals with T1, Human membrane IL-6R on cells. The test can be described thus: cell-based or functional assay. This is another data set of the same source.
For test [5], the target named is T2, Human soluble IL-6R. The test can be described thus: Alphascreen, inhibition of bio-IL-6 binding to IL-6R.
Method: (§1) Finally streptavidin donor beads were added and after 1 hour incubator the plate was read on the Envision microplate reader.
Test [6] addresses T2, Human soluble IL-6R. Nature of the test: competition for IL-6R, competitor reference Fab, summary table C-13.
Test [7] addresses T2, Human soluble IL-6R. The test can be described thus: Alphascreen IL-6/IL-6R competition (IL-6R 0.3 nM, bio-IL-6 3 nM); row EC50 of the fit table, axis [competitor], M; blocked ligand IL-6.
The target in test [8] is T1, Human membrane IL-6R on cells. The test can be described thus: cell-based or functional assay. This is another data set of the same source.
For test [9], the target named is T2, Human soluble IL-6R. Nature of the test: summary table C-13 of Nanobody characteristics, Kd on IL-6R.
Method: (§2) Nanobodies were injected at 5 different concentrations between 1 and 50 nM. Flow rate was 45 μl/min in all experiments. Association and dissociation phase were 3 and 10 min, respectively. The chip was regenerated using Glycine/HCl pH 1.5.
In test [10] the target is T2, Human soluble IL-6R. The test can be described thus: Biacore off-rate, periplasmic extracts.
Test [11] concerns the target T2, Human soluble IL-6R. Nature of the test: inhibition of the IL-6/IL-6R interaction, summary table C-13.
Method: as §1
Test [12] has as its target T2, Human soluble IL-6R. The test can be described thus: Alphascreen IL-6/IL-6R competition with purified Nanobody; row EC50 of the table, axis [inhibitor], M; blocked ligand IL-6.
Test [13] concerns the target T2, Human soluble IL-6R. Nature of the test: SPR Biacore 3000, IL-6R amine-coupled to CM5.
Method: as §2
The next test has as its target T3, Mouse IL-6R (mouse, UniProt P22272 20-364, limits assumed).
T3 construct: also called mouse sIL-6R
T3 sequence (looked up): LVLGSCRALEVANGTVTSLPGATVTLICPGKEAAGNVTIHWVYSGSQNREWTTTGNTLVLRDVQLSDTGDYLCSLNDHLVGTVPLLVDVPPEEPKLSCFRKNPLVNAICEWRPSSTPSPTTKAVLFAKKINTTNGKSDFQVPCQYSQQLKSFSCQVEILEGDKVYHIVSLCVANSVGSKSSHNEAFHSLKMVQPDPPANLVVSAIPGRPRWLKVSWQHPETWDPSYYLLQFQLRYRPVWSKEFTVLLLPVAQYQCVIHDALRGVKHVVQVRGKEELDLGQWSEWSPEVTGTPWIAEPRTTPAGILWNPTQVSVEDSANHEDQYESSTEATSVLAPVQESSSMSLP
The test can be described thus: ELISA: plate coated with 1 µg/ml mouse IL-6R, 500 nM Nanobody, anti-myc + anti-mouse-HRP.

Test [14] deals with T2, Human soluble IL-6R. The test can be described thus: Biacore off-rate, periplasmic extract.
Test [15] addresses T1, Human membrane IL-6R on cells. The test can be described thus: cell-based or functional assay. This is another data set of the same source.
The test “Cyno IL-6R” addresses B3. Nature of the test: SPR Biacore 3000, cyno IL-6R amine-coupled to CM5.
Method: Remaining reactive groups were inactivated. […] Each sample was injected for 4 min at a flow rate of 45 μl/min to allow for binding to chip-bound antigen. Next, binding buffer without Nanobody was sent over the chip at the same flow rate to allow for dissociation of bound Nanobody.
Test [16] addresses T2, Human soluble IL-6R. Nature of the test: Alphascreen IL-6/IL-6R competition (IL-6R 0.3 nM, bio-IL-6 3 nM); row EC50 of the fit table, axis [competitor], M; blocked ligand IL-6. This is another data set of the same source.
The target in a further test is T4, PMP20A11.
T4 construct: also called IL6R20A11; IL6R300; not shown: c-myc and (His)6 tags
Nature of the test: competition ELISA: IL6R20A11 (0.4 nM) pre-incubated with a series of recombinant sIL-6R; free IL6R20A11 captured on biotinylated human sIL-6R on neutravidin.

We go through three molecules from patent publication US20120077731A1 (Ablynx, published 2012).

Values joined by “and” are separate entries in the source; they are usually repeats but may differ in a detail not shown here. Equal values may be shown once.

Method for Mouse IL-6R: Detection was performed with anti-myc and anti-mouse-HRP as first and second antibody respectively.

B1: IL6R13 (VHH)
VHH: EVQLVESGGGLVQPGGSLRLSCAASGFTFDDYGMSWVRQAPGRATEWVSAISWNGNNTYYTESMKGRFTISRDNAKNTVYLQMNSLKPEDTAVYYCVKGSTAIVGVPPTYPDEYDYWGQGTQVTVSS
notes: also called PMP35H4; not shown: C-terminal c-myc and (His)6 tags
On to B1, for which the “IC50 values (nM), XG-1 assay” value in test [1] turned out to be 1.4 nM. The Kd is 0.7 nM with Human soluble IL-6R [2]; 0.5 nM with Human soluble IL-6R [9]; 0.5 nM and 0.8 nM in the test with Human soluble IL-6R [13]. In addition, in the test with Human soluble IL-6R [3], the “Residual reference-Fab binding to IL-6R (%)” value is 25%. Moreover, the “IC50 (nM) + HSA, XG-1 cell proliferation” value in test [4] amounted to 1.3 nM. Also, in [4], the “IC50 (nM), XG-1 cell proliferation” value is 1.4 nM. The IC50 with Human soluble IL-6R [5] was determined as 0.0477 nM; in the test with Human soluble IL-6R [7], 0.0644 nM; with Human soluble IL-6R [11], 0.05 nM; with Human soluble IL-6R [12], 0.0505 nM. In the test with Human soluble IL-6R [6], the “Ref Fab competition (%)” value came to 25%. For the same molecule, the “IC50 (nM) XG-1” value in test [8] came out at 1.4 nM. For the same molecule, the koff in the test with Human soluble IL-6R [10] is 0.00021 s⁻¹; with Human soluble IL-6R [13] it was 0.000121 s⁻¹ and 0.000109 s⁻¹ and 0.000178 s⁻¹; with Human soluble IL-6R [14], 0.000178 s⁻¹. For the same molecule, the kon with Human soluble IL-6R [13] is 231000 M⁻¹ s⁻¹ and 137000 M⁻¹ s⁻¹. In the test with Mouse IL-6R, the binding result is reported as “no binding (tested: 500 nM)”. For the same molecule, the “IC50 (nM), TF1 cell proliferation” value in [15] is 5.2 nM.

B2: IL6R03 (VHH)
VHH: EVQLVESGGGLVQAGGSLRLSCAASGSIFKVNAMGWYRQAPGKQRELVAGIISGGSTNYADSVKGRLTISRDNAKNTVYLQMNSLKPEDTAVYYCSFVTTNSDYDLGRDYWGQGTQVTVSS
notes: also called PMP31A4; not shown: C-terminal c-myc and (His)6 tags
B2: in test [1], the “IC50 values (nM), XG-1 assay” value is 17 nM. Also, the Kd was determined as 3 nM with Human soluble IL-6R [2], 4.4 nM in the test with Cyno IL-6R, 3 nM in the test with Human soluble IL-6R [9] and 3 nM with Human soluble IL-6R [13]. The koff with Cyno IL-6R is 0.00164 s⁻¹; in the test with Human soluble IL-6R [13], 0.00147 s⁻¹ and 0.0016 s⁻¹; in the test with Human soluble IL-6R [14], 0.0016 s⁻¹. In addition, the kon with Cyno IL-6R is 370000 M⁻¹ s⁻¹; with Human soluble IL-6R [13], 484000 M⁻¹ s⁻¹. In addition, the “Residual reference-Fab binding to IL-6R (%)” value with Human soluble IL-6R [3] is 5%. The “IC50 (nM) + HSA, XG-1 cell proliferation” value in test [4] stood at 17.5 nM. Also, the “IC50 (nM), XG-1 cell proliferation” value in test [4] is 16.2 nM. In addition, the IC50 in the test with Human soluble IL-6R [5] came to 0.716 nM; with Human soluble IL-6R [16] it was 0.187 nM; with Human soluble IL-6R [11], 0.72 nM; with Human soluble IL-6R [12] it was 0.105 nM. The “Ref Fab competition (%)” value with Human soluble IL-6R [6] was 5%. Besides, the “IC50 (nM) XG-1” value in [8] turned out to be 16.2 nM. Further, in the test with Mouse IL-6R, the binding result is recorded as “no binding (tested: 500 nM)”. Further, the “IC50 (nM), TF1 cell proliferation” value in test [15] stood at 62.1 nM.
Consider B3, for which the “IC50 (read off the curve)” value with PMP20A11 is roughly 3 ng/mL.
